Experimental findings from patent US20260069689A1 are described below.

This experiment deals with T1, human CD20 on Jurkat cells (human) (UniProt P11836).
T1 sequence: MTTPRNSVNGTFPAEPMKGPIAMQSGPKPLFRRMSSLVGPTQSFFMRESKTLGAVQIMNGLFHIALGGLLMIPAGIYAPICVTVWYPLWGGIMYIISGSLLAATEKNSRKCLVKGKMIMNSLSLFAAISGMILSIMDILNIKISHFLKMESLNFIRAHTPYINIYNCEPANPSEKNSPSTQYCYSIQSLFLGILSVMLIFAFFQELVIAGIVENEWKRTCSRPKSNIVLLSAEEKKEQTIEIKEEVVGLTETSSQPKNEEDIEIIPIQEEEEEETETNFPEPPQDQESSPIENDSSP
Kind of experiment: cell-based or functional assay.

The substance casirivimab + imdevimab yielded a Max ADCP (%), MDM donor #1, Jurkat/hCD20 cells of 15.5%; a Max ADCP (%), MDM donor #2, Jurkat/hCD20 cells of 15.1%; a Max cytotoxicity (%), ADCC, NK donor #1, Jurkat/hCD20 cells of 0.8%; a Max cytotoxicity (%), ADCC, NK donor #2, Jurkat/hCD20 cells of 4.8%. This substance also showed a Max cytotoxicity (%), ADCC, NK donor #3, Jurkat/hCD20 cells of 0%.
